Consider one molecule from paper PMC4190069.

The target in data set [1] is Rad51 (wild type);Rad52 (wild type);RPA (wild type) (Saccharomyces cerevisiae;Saccharomyces …, UniProt P25454;P06778;P22336;P26754;P26755 1-400;1-471;1-621;1-273;1-122, ||). The experiment in a line: bead pull-down.
Data set [2] deals with RPA (wild type);Rad52 (wild type) (Saccharomyces cerevisiae;Saccharomyces …, UniProt P22336;P26754;P26755;P06778 1-621;1-273;1-122;1-471, |). The data set can be described thus: bead pull-down.
Sequence of RPA (wild type);Rad52 (wild type) (P22336 whole entry, chain 1 of 4): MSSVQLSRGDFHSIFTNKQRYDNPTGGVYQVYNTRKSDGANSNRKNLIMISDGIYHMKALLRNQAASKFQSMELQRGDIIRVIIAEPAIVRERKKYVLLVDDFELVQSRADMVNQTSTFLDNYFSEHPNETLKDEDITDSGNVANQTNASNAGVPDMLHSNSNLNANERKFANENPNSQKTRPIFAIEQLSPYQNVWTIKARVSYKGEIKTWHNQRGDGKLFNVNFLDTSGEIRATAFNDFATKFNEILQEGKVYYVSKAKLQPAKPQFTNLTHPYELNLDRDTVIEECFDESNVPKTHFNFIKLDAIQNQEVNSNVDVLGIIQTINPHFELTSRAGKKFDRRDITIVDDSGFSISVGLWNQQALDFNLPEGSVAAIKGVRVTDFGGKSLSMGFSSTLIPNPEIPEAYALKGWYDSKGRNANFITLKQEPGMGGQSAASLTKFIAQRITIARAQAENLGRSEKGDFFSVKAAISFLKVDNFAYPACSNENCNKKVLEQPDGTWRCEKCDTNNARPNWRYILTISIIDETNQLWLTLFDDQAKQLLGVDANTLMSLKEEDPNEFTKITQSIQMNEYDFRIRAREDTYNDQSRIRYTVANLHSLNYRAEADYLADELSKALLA
Sequence of RPA (wild type);Rad52 (wild type) (P26754 whole entry, chain 2 of 4): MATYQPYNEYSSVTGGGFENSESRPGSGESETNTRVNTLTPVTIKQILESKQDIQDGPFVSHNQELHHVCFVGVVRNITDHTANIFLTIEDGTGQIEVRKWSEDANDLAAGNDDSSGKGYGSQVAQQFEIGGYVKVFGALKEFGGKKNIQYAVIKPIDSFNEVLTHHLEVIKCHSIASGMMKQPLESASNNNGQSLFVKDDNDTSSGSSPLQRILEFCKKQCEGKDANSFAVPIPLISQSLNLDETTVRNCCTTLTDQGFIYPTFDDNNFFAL
Sequence of RPA (wild type);Rad52 (wild type) (P26755 whole entry, chain 3 of 4): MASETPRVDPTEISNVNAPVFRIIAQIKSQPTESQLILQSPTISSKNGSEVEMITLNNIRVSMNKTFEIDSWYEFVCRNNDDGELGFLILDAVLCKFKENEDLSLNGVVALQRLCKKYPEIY
Sequence of RPA (wild type);Rad52 (wild type) (P06778 whole entry, chain 4 of 4): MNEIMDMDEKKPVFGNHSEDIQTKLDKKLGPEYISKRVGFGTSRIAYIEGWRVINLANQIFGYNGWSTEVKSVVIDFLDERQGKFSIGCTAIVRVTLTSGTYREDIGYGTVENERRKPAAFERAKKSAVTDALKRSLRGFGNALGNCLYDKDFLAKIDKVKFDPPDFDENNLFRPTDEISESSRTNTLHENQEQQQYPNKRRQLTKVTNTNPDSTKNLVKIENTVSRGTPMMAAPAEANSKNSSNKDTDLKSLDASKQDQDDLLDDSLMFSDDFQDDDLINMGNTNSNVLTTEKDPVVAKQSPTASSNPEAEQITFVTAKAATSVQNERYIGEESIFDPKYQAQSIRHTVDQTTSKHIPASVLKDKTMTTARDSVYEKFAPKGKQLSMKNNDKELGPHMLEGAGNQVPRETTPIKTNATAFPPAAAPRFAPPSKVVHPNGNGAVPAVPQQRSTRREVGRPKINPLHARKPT

B1: 74-nt biotinylated ssDNA oligo (ssDNA)
DNA: TTTTTTGTAAAACGACGGCCAGTGCCAAGCTTGCATGCCTGCAGGTCGACTCTAGAGGATCCCCGGGTACCGAG
modifications: 5' biotin
Consider B1, for which the binding result in data set [1] and in data set [2] was “binds” in each case.
